For data set [1], the system named is MS2 coat protein (MCP)-SoxS R93A fusion (bacteriophage MS2). In words: ELONA. The note with it: protein coated at 10 ug/mL; aptamer 0.25-2500 nM.
Data set [2] deals with MCP T45L-SoxS R93A T45L (bacteriophage MS2). In words: cell_activity. The following applies: E. coli CRISPRa; some function retained.
Data set [3] concerns the target T1, MS2 coat protein (MCP)-SoxS R93A fusion, wild-type MCP (bacteriophage MS2).
T1 chain: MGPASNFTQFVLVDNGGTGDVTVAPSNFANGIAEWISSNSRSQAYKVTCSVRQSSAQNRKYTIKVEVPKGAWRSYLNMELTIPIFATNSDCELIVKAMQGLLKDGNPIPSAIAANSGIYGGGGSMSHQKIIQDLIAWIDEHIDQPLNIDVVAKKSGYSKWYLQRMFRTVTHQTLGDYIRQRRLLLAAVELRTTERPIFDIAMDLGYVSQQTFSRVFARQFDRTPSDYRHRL
In words: cell_activity; CRISPRa in E. coli with dCas9, J1 promoter-GFP reporter. The following applies: tags: fused to SoxS(R93A); MS2 hairpin in sgRNA scaffold. From the text:
To test the ability of the CRISPR system to accommodate the insertion of an RNA aptamer motif into the sgRNA and allow for locus-specific effector recruitment in E. coli cells, a construct was first designed to insert a known RNA aptamer against bacteriophage MS2 coat protein (MCP) into the tetraloop region of sgRNA (FIG. 3A, SEQ ID NO. 8). Correspondingly, MCP was fused with the SoxS transcriptional activator. Three plasmids (SP, AP, and RP) were designed to introduce into the cell the sgRNA-aptamer chimera, the MCP-SoxS fusion along with dCas9 (SEQ ID NO. 10), and a synthetic reporter construct, respectively (FIG. 4). Following a design principle established by a previous study, the synthetic reporter was constructed to control the expression of enhanced green fluorescent protein (eGFP) by CRISPR co-localized with RNA polymerase through aptamer-MCP interaction (FIG. 3B). This synthetic reporter construct contained a weak promoter and multiple protospacer sequences to be targeted by sgRNA to control levels of gene activation (FIG. 5A).
The distance of the sgRNA target from the transcription start site was also tested by using this reporter. […] Low GFP levels were also observed when an off-target gRNA was used that had no binding site on the J1 synthetic promoter. […]

Broadly, the Kd is the concentration at which binding is half-saturated. Higher therefore signals weaker binding.

For the molecule MS2 aptamer, the Kd in data set [1] was 26.3 nM. As for “UUAUCACCUUGGCUGCAGGCGUUUUAGAGCUAGAAAUAGCAAGUUAAAAUAAGGCUAGUCCGUUAUCAACUUGAAAAAGUGCGCACAUGAGGAUCACCCAUGUGCUUUUUU [gRNA J1.3-MS2 aptamer scaffold]”, in data set [2], the binding signal (fold GFP decrease vs wild-type MCP) amounted to 23.

B1: gRNA J1.3-MS2 aptamer scaffold (ssRNA)
RNA: UUAUCACCUUGGCUGCAGGCGUUUUAGAGCUAGAAAUAGCAAGUUAAAAUAAGGCUAGUCCGUUAUCAACUUGAAAAAGUGCGCACAUGAGGAUCACCCAUGUGCUUUUUU
With B1, the activity in data set [3] turned out to be 56 fold GFP increase.
